Laboratory results published in article PMC8764033, “Single-molecule analysis of specificity and multivalency in binding of short linear substrate motifs to the APC/C” (Nature Communications, 2022).

Key:
[1] = Aggregation / background fluorescence in SMOR assay; type: physicochemical
Experimental: To capture dynamic protein–protein interactions, dye-labeled substrate diluted in buffer C + BSA was added to the chamber containing immobilized proteins. Interactions were imaged by TIRF microscopy as described below. For optimal signal-to-noise ratio, peptide concentration was no greater than 1 nM. Protein substrates included Hsl1 aa 667–872 and a C-terminal HaloTag followed by a TAP tag, and were produced by translation in rabbit reticulocyte lysates using TnT Quick Coupled Transcription/Translation System (Promega) (see Supplementary Table 5 for plasmids). Protein was purified with magnetic IgG beads and labeled on the bead with JF549 or JF646 dye so that unbound dye could be washed away. Purified dye-labeled protein was then cleaved from the beads using TEV protease. Before adding substrate to the reaction chamber, oxygen scavenging reagents were added (10 nM protocatechuate-3,4-dioxygenase, 2.5 mM protocatechuic acid, and 1 mM Trolox)[41]. A detailed description of the SMOR analysis pipeline is found in Supplementary Note 1.

APC/C [2] = conditions: APC/C^Cdc20 vs APC/C^Cdh1; cited from earlier work
Excerpt: We find that the yeast securin ...

APC/C [3] = conditions: purified yeast components, 30 min; 20 (Mizrak & Morgan, 2019); cited from earlier work
Excerpt: It is therefore unlikely that activator dissociation is occurring during our measurements of substrate dissociation from APC/C^Cdh1 or APC/C^Cdc20. || page 6: Cdh1 in Supplementary Figure 6. 2. Fig. 1b. List human peptide sequences used in this study. Now added to Supplementary Figure 6. 3. APC/C-Cdh1 interaction stability and life-time. The SMOR assay is dependent on a stable APC/C-Cdh1 interaction, longer than the dwell times of APC/C-activator-substrate complexes. Can the authors measure the dwell time of APC/C bound to activator? Excellent point.

Molecule	aggregation / background (in words) [1]	processivity of ubiquitylation (in words) (APC/C [2])	dissociation from the APC/C (in words) (APC/C [3])
securin: separase inhibitor securin, APC/C substrate protein (protein, UniProt P40316 1-373, looked up) Securin: MMPANEDKENNIVYTGNESSGINFPQTPAHLLKRSHSNILKPPVRLDQLKRDANSNNGNTLKYIQGGKEVSPTKRLHTHAQQQGRLPLAAKDNNRSKSFIFPETSNQSKDADLPQLQNTLSIRKNDQLRKLSQISRSRSRANHNDLLSNSRKLQKYGSVLGYNALPKMKSLVLKDLADSGKNEESSDDDEGNEDSESKLGKKLQSALLKQDSSDGENELNGGLGLFNEQGGLQQLIKNSTKNEQKTKNDKSDKTDDYDIEIAPQRQEPLPYVPEGYSPFQQDDIEKLKTFNSPYKLDLEDEDDTPDKVDLLPLEQIDEEGEKDETECITRNQEEGAALPLLSKNFKEVAAVPTMELVYSEEGLDPEELEDLVT	tendency to aggregate and create excessive background fluorescence	more processive than that with APC/C^Cdh1	–
Clb5: yeast S-phase cyclin, APC/C substrate protein (protein, UniProt P30283 1-435, looked up) S-phase entry cyclin-5: MGENHDHEQSIKRNSMIYNENERQLCNSNLKILQNKRALSKNDSSSKQQVQDSKPRRALTDVPVNNNPLSQNKRIVAGSKAAKVRREENIRPIVSAVQKRQIYNDRTAAEQEEEEEEEGEDDDAASIVNKKRRIDAEGVSEIVGWQDLDYVEKDDTAMVAEYSAEIFAFLYRRELETLPSHNYLLDKTSKYYLRPSMRTILVDWLVEVHEKFQCYPETLFLSINLMDRFLAKNKVTMNKLQLLAVTSLFIAAKFEEVNLPKLAEYAYITDGAASKNDIKNAEMFMLTSLEFNIGWPNPLNFLRRISKADDYDPVNRNIGKFILEYAYCCHQFIHLPPSTVSAMAMYIARRMTNRNKNELWNGTLQHYSGGIDPIHDEAFQSLCIDLVKDIASSKTHLDSLILKYKKPRYGSVYFQTFKWCTSEMHSNFQNLFNLK	–	more processive than that with APC/C^Cdh1	–
Cdh1: APC/C activator subunit (protein, UniProt P53197 1-566, looked up) APC/C activator protein CDH1: MSTNLNPFMNNTPSSSPLKGSESKRVSKRPISSSSSASLLSSPSRRSRPSTVYGDRYIPSRTDIDFNSIVSISSMASVPALNPSSTEDQVEYQKERQAHETYNTLLKNELFGEMLSKDTVGSESSIDRIKNTRPSTRGNVHAENTTRHGYELERVSTPPPEAAGLEEFSPHSTPVTPRRLFTSQQDEITRPSSNSVRGASLLTYQQRKGRRLSAASLLQSQFFDSMSPVRPDSKQLLLSPGKQFRQIAKVPYRVLDAPSLADDFYYSLIDWSSTDVLAVALGKSIFLTDNNTGDVVHLCDTENEYTSLSWIGAGSHLAVGQANGLVEIYDVMKRKCIRTLSGHIDRVACLSWNNHVLTSGSRDHRILHRDVRMPDPFFETIESHTQEVCGLKWNVADNKLASGGNDNVVHVYEGTSKSPILTFDEHKAAVKAMAWSPHKRGVLATGGGTADRRLKIWNVNTSIKMSDIDSGSQICNMVWSKNTNELVTSHGYSKYNLTLWDCNSMDPIAILKGHSFRVLHLTLSNDGTTVVSGAGDETLRYWKLFDKPKAKVQPNSLIFDAFNQIR	–	–	dissociation from the APC/C was not detected in 30 min
